Key:
[1] = target: GST-p120-catenin isoform 4A (mouse); experiment: pull-down
[2] = target: GST-p120-catenin isoform 4A Δ560–628 (mouse); experiment: pull-down

Chain of GST-p120-catenin isoform 4A (mouse) (P30999 whole entry, canonical isoform): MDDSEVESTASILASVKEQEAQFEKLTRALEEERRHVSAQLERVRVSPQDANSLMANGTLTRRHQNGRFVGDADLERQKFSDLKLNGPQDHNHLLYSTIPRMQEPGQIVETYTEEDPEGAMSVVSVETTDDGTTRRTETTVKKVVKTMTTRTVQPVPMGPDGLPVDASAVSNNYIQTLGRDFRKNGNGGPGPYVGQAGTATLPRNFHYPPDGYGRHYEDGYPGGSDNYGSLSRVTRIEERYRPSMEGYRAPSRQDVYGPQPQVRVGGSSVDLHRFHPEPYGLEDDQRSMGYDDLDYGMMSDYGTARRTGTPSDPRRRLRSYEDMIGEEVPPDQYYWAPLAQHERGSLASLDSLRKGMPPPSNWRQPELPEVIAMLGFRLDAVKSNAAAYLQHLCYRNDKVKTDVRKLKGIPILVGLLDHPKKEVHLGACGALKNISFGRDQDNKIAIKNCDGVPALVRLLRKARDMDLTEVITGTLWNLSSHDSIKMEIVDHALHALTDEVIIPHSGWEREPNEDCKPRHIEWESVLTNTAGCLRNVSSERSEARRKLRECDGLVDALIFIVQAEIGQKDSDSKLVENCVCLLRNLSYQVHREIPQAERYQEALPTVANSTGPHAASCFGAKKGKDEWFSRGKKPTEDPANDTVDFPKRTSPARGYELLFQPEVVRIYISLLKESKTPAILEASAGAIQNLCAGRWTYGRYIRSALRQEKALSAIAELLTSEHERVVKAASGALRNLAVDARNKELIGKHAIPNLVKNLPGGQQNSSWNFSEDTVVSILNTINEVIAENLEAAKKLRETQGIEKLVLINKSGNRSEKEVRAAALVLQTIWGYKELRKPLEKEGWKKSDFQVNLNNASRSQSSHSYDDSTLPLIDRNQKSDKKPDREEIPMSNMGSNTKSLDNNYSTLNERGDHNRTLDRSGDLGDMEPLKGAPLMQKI

- p190B bound, percent of that bound to isoform 3A [1]: 43%
- p190B bound, percent of that bound to isoform 3A [2]: 38%
Substance: p190RhoGAP-B (from UniProt Q13017 1-1502) (natural protein)

Source: publication PMC3667722
